Measurements taken from patent US20070207967A1 (CTT CANCER TARGETING TECHNOLOGIES, published 2007).
Ends that are not written are not given here.

B2: pro-MMP-9 (purified human pro-matrix metalloproteinase-9) (enzyme, UniProt P14780 20-707, looked up)
chain: APRQRQSTLVLFPGDLRTNLTDRQLAEEYLYRYGYTRVAEMRGESKSLGPALLLLQKQLSLPETGELDSATLKAMRTPRCGVPDLGRFQTFEGDLKWHHHNITYWIQNYSEDLPRAVIDDAFARAFALWSAVTPLTFTRVYSRDADIVIQFGVAEHGDGYPFDGKDGLLAHAFPPGPGIQGDAHFDDDELWSLGKGVVVPTRFGNADGAACHFPFIFEGRSYSACTTDGRSDGLPWCSTTANYDTDDRFGFCPSERLYTQDGNADGKPCQFPFIFQGQSYSACTTDGRSDGYRWCATTANYDRDKLFGFCPTRADSTVMGGNSAGELCVFPFTFLGKEYSTCTSEGRGDGRLWCATTSNFDSDKKWGFCPDQGYSLFLVAAHEFGHALGLDHSSVPEALMYPMYRFTEGPPLHKDDVNGIRHLYGPRPEPEPRPPTTTTPQPTAPPTVCPTGPPTVHPSERPTAGPTGPPSAGPTGPPTAGPSTATTVPLSPVDDACNVNIFDAIAEIGNQLYLFKDGKYWRFSEGRGSRPQGPFLIADKWPALPRKLDSVFEERLSKKLFFFSGRQVWVYTGASVLGPRRLDKLGLGADVAQVTGALRSGRGKMLLFSGRRLWRFDVKAQMVDPRSASEVDRMFPGVPLDTHDVFQYREKAYFCQDRFYWRVSSRSELNQVDQVGYVTYDILQCPED
notes: Purified proenzyme in plate assays; endogenous pro-MMP-9 of HT1080 and THP-1 cells in the co-immunoprecipitations
B6: MMP-9 collagen binding domain (CBD), amino acids Gly204-Gly373 (other, UniProt P14780 223-392, looked up)
chain: GNADGAACHFPFIFEGRSYSACTTDGRSDGLPWCSTTANYDTDDRFGFCPSERLYTQDGNADGKPCQFPFIFQGQSYSACTTDGRSDGYRWCATTANYDRDKLFGFCPTRADSTVMGGNSAGELCVFPFTFLGKEYSTCTSEGRGDGRLWCATTSNFDSDKKWGFCPDQG
modifications: biotinylated with sulfo-NHS-LC-biotin in some experiments
notes: range 223-392; Vector-derived residues (start Met from the NdeI site) not described further; also called recombinant CBD; biotinylated CBD

Columns and labels:
[1] = target: B2; experiment: phage display selection; table of pro-MMP-9 binding peptide sequences, group I CBD-binding
[2] = target: T1, αVβ3 integrin of HT1080 cells (human, UniProt P06756 31-1048; P05106 27-788); experiment: immunoprecipitation with anti-integrin antisera, western blot for MMP-9
T1 construct: whole, on cells
T1 sequence (P06756 31-1048, chain 1 of 2): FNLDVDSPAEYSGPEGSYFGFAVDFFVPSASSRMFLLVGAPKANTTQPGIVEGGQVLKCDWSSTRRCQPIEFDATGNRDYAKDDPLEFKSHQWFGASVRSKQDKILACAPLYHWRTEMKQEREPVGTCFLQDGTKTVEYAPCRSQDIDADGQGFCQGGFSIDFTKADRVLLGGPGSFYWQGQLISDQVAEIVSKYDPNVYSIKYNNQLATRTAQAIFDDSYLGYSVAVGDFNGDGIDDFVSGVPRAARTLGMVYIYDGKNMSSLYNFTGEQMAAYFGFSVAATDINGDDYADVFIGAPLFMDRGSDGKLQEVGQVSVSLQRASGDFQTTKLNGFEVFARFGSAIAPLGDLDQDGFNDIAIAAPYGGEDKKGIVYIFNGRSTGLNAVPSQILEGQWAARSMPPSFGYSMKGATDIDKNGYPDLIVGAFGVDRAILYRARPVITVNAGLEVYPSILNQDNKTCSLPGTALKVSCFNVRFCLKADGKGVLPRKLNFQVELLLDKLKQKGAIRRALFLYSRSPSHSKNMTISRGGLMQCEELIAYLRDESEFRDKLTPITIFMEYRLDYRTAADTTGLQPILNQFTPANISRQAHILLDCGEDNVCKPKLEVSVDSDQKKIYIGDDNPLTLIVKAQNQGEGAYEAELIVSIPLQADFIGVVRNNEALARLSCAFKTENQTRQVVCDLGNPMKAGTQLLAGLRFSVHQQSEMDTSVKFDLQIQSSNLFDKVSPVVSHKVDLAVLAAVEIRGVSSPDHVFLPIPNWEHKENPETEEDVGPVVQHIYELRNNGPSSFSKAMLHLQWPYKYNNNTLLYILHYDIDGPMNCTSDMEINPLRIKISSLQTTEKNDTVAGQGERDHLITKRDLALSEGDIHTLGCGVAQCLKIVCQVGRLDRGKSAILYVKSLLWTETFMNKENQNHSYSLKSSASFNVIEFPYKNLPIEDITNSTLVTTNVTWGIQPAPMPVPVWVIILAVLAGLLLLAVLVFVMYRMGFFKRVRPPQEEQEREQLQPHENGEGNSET
T1 sequence (P05106 27-788, chain 2 of 2): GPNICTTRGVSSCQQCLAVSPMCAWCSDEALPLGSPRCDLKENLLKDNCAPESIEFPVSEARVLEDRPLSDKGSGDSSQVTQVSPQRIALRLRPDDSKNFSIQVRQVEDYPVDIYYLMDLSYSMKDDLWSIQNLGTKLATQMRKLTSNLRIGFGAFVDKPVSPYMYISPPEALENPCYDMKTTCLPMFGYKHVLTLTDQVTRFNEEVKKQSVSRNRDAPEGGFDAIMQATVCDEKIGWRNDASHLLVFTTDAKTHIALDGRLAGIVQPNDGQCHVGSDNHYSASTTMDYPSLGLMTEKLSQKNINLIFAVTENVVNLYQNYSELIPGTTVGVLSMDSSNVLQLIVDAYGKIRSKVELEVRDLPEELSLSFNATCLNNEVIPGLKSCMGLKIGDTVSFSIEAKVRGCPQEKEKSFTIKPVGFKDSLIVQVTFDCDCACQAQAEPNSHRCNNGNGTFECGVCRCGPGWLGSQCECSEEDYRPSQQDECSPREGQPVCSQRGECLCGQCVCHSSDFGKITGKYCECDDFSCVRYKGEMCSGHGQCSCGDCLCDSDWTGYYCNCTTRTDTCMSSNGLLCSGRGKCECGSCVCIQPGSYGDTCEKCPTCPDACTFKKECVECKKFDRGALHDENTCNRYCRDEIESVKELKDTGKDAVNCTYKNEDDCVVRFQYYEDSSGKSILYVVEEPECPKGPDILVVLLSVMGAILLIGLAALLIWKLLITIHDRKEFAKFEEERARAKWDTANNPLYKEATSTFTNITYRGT

platelet integrin αIIbβ3 = platelet integrin αIIbβ3 (UniProt P08514 32-1039; P05106 27-788); experiment: pro-MMP-9 on immobilized integrin, read out by biotinylated gelatin
Sequence of platelet integrin αIIbβ3 (P08514 32-1039, chain 1 of 2): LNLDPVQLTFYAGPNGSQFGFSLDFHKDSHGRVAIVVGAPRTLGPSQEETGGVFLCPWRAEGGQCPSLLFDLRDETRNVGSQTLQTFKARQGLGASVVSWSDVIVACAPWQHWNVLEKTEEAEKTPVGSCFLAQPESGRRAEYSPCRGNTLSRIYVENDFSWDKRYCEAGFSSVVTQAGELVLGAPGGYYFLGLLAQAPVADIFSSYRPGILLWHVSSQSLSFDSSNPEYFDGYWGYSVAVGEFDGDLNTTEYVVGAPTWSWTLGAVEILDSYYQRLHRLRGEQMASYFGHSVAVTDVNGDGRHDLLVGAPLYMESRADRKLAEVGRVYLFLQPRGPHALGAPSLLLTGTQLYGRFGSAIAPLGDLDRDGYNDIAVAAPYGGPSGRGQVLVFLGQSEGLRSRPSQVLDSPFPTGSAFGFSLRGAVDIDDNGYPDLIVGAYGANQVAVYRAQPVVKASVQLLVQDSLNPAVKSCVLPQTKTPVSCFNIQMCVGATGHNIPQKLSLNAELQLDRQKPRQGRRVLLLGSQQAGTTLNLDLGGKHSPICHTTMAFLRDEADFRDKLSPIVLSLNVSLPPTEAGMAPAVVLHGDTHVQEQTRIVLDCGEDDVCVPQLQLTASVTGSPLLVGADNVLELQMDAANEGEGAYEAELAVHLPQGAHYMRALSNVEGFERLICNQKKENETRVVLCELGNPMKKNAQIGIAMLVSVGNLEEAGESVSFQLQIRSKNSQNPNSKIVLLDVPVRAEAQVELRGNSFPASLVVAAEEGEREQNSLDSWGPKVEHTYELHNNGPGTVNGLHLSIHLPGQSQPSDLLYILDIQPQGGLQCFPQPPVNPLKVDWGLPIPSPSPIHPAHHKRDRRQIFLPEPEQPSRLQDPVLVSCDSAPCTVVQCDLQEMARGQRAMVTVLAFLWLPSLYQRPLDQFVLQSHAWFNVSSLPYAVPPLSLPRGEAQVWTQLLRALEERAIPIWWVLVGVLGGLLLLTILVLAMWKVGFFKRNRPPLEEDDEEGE
Sequence of platelet integrin αIIbβ3 (P05106 27-788, chain 2 of 2): as the sequence (P05106 27-788, chain 2 of 2) above

[3] = target: B2; experiment: phage display selection; table of pro-MMP-9 binding peptide sequences, group I CBD-binding; (6) is the number of isolated phage
[4] = target: T2, pro-MMP-9-ΔHC (Ala1-Gly424), pro-MMP-9 lacking the hinge region and the C domain (UniProt P14780 20-444); experiment: phage binding assay (not shown)
T2 construct: range 20-444

pro-MMP-3 = pro-MMP-3 (UniProt P08254 18-477, limits assumed); experiment: phage binding assay
Sequence of pro-MMP-3 (P08254 18-477 limits assumed): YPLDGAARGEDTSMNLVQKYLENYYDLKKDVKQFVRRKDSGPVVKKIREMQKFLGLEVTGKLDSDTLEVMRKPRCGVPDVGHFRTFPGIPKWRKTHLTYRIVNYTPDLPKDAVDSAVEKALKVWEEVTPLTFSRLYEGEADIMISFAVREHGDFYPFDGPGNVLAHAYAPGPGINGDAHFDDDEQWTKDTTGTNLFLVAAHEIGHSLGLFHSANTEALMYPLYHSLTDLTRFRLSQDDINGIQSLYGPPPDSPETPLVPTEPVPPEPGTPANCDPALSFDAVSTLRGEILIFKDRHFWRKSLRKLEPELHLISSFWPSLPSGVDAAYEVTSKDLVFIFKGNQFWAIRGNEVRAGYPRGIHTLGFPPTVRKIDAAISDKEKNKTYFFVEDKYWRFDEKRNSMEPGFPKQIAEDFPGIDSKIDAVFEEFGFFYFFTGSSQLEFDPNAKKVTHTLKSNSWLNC

pro-MMP-2 = target: T3, pro-MMP-2 (UniProt P08253 30-660, limits assumed); experiment: phage binding assay
T3 sequence (looked up): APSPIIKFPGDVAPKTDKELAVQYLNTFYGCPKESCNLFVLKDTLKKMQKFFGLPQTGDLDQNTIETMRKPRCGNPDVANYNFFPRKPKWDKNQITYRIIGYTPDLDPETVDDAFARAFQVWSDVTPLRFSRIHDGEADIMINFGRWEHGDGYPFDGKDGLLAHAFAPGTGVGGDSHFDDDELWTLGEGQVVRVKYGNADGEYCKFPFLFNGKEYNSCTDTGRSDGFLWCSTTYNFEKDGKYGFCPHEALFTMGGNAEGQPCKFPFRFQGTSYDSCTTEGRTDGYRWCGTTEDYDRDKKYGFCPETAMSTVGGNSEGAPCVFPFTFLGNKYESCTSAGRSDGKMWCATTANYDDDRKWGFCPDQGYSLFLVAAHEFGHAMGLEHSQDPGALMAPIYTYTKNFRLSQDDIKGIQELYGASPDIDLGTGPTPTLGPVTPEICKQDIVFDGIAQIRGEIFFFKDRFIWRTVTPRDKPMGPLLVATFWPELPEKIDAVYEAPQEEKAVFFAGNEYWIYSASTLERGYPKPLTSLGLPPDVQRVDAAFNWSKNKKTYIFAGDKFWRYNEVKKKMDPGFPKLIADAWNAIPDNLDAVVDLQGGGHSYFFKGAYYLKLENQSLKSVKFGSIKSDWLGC

[5] = target: B6; experiment: phage binding assay
[6] = target: T4, urea-denaturated human plasma vitronectin (human, UniProt P04004 20-478); experiment: solid phase binding assay (discussion)
T4 construct: also called VN
T4 sequence (P04004 20-478 limits assumed): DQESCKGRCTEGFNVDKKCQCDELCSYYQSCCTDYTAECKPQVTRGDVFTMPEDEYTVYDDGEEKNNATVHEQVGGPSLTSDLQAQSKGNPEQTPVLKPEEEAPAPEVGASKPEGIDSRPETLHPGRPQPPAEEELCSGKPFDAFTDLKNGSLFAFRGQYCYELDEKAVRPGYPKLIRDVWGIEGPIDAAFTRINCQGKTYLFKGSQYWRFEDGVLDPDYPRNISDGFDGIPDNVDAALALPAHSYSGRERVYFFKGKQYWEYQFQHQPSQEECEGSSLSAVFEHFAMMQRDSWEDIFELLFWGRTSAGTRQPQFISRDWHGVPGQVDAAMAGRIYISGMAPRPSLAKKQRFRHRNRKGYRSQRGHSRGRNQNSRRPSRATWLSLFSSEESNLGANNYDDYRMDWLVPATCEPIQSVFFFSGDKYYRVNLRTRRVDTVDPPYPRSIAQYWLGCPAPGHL

[7] = target: T4, urea-denaturated human plasma …; experiment: solid phase assay, streptavidin-peroxidase
[8] = target: the molecule itself; experiment: solid phase assay, streptavidin-peroxidase
[9] = target: B6; experiment: solid phase assay, streptavidin-peroxidase
[10] = target: B6; experiment: pepspot membrane assay, chemiluminescence

B1: phage peptide CGWGRYSPPC (peptide)
peptide: CGWGRYSPPC
modifications: cysteine pairing not given here; also: displayed on phage
notes: selected by biopanning
B1: binds [1].

B2: no binding [2]; no binding (platelet integrin αIIbβ3).

B3: PPC peptide-bearing phage (CGYGRFSPPC displayed on phage) (peptide)
peptide: CGYGRFSPPC
modifications: cysteine pairing not given here; also: displayed on phage
notes: also called PPC phage; phage carrying PPC
B3: binds [3].

B4: phage peptide CGFGRWQPPC (peptide)
peptide: CGFGRWQPPC
modifications: cysteine pairing not given here; also: displayed on phage
notes: selected by biopanning
B4: binds [1].

B5: CRV phage (CRVYGPYLLC displayed on phage) (peptide)
peptide: CRVYGPYLLC
modifications: cysteine pairing not given here; also: displayed on phage as coat protein fusion
notes: also called phage carrying CRV
B5: no binding [4]; no binding (tested: 20 ng/well; 10^8 transducing units/well) (pro-MMP-3); no binding (tested: 20 ng/well; 10^8 transducing units/well) (pro-MMP-2). B5: no binding (tested: 20 ng/well; 10^8 transducing units/well) [5].

B6: binds [6].

B7: integrin β5 I-EGF2+3 fragment (Glu476-Asn563) with N-terminal His6-tag (receptor, UniProt P18084 499-586, looked up)
chain: ECQDGENQSVYQNLCREAEGKPLCSGRGDCSCNQCSCFESEFGKIYGPFCECDNFSCARNKGVLCSGHGECHCGECKCHAGYIGDNCN
modifications: biotinylated where used as the labelled ligand
notes: range 476-563; also called I-EGF2+3 fragment of β5 integrin; biotinylated β5 I-EGF2+3; not shown: N-terminal His6-tag from the pHAT2 vector
B7: no binding (tested: biotinylated fragment 2.5 µg/ml) [7]; no binding (tested: biotinylated fragment 2.5 µg/ml) [8]; no binding (tested: biotinylated fragment 2.5 µg/ml) [9].

B8: fibronectin-derived peptide TTPNSLLVSWQPPRARIT (peptide)
peptide: TTPNSLLVSWQPPRARIT
notes: Synthesized on a cellulose membrane (pepspot); also called PPC-like fibronectin peptide
B8: binds [10].
